Results reported in patent publication US20130323813, “PEPTIDES FOR THE SPECIFIC BINDING OF RNA TARGETS” (THE UNIVERSITY OF WESTERN AUSTRALIA, published 2013).
Changes are numbered by the printed parent chain.

Legend:
[1] = biological target: T1, PUM1 PUF CR (repeat 6 Cys12/Arg16) (Homo sapiens, UniProt Q14671 SEQ:1-351); assay: EMSA; 10 mM HEPES pH 8.0, 50 mM KCl, 1 mM EDTA, RT; conditions: tags: intein-CBD cleaved for EMSA; label: 5'-fluorescein
T1 chain: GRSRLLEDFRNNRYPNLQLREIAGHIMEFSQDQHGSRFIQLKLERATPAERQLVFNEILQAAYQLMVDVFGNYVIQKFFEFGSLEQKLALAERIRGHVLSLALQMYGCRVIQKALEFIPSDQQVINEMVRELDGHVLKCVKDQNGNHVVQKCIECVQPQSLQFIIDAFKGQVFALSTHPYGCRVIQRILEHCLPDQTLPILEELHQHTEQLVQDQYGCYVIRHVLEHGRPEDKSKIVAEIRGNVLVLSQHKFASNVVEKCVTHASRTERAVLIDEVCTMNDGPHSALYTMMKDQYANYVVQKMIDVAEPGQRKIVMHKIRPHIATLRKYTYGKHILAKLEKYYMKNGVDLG
Method: (§1) Purified PUF domains were incubated at room temperature for 30 min with fluorescein labeled RNA oligonucleotides (Dharmacon) in 10 mM HEPES (pH 8.0), 1 mM EDTA, 50 mM KCl, 2 mM DTT, 0.1 mg/ml fatty acid-free BSA, and 0.02% Tween-20.

[2] = biological target: T2, PUM1 PUF GR (repeat 6 Gly12/Arg16) (Homo sapiens, UniProt Q14671 SEQ:1-351); assay: EMSA; 10 mM HEPES pH 8.0, 50 mM KCl, 1 mM EDTA, RT; conditions: tags: intein-CBD cleaved for EMSA; label: 5'-fluorescein
T2 chain: T1 chain with C218G
Method: as §1

Which results are given for AUUGCAUAUA (ssRNA) [NREU3C (Fl)]?
binding result [1]: binds; binding result [2]: binds
